The results in this text go back to patent US20190100591A1 (ITEOS BELGIUM, published 2019).

In assay [1] the target is Polyspecificity Reagent (PSR). In words: flow cytometry, IgG presented on yeast, biotinylated PSR, normalised MFI. Background: Flow cytometry measures light scatter and fluorescence of single cells or particles in a stream.
The target of assay [2] is T1, human TIGIT expressed on cells (human, UniProt Q495A1 22-244).
T1 construct: whole, on cells; on Jurkat E6.1 cells transduced with human TIGIT, on Promega TIGIT effector cells or on human primary T cells; the cell is named under assay; also called hTIGIT; Jurkat-hTIGIT
T1 sequence (looked up): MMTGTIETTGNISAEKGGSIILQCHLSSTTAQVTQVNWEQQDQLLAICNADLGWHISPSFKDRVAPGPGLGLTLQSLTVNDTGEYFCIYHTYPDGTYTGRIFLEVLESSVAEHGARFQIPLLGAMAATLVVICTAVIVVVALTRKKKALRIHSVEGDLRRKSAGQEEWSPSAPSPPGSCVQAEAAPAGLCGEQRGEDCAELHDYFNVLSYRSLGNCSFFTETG
In words: flow cytometry, Jurkat-hTIGIT, MFI. Here is the method:
Antibodies were incubated with the cells for 20 min at 4° C. in FACS buffer. […] Fluorescence intensity was analysed using LSR BD Fortessa and cell binding was recorded as the median fluorescence intensity of PE in cells expressing TIGIT at their surface.
The half-maximal concentration of binding (EC50) to Jurkat-hTIGIT was calculated using a four-variable curve-fit equation in Prism.

Assay [3] has as its target T2, recombinant human TIGIT protein (human, UniProt Q495A1 22-141, limits assumed).
T2 construct: also called hTIGIT (Creative Biomart); antigen
T2 sequence (looked up): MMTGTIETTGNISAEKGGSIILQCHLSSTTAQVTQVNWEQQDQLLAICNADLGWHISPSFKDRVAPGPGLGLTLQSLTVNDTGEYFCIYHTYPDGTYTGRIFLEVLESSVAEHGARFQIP
Briefly: Biacore T200 SPR, IgG captured, steady state model. (In general: In SPR one partner is held on a chip, and binding of the other changes the refractive index at the surface.)

Assay [4] deals with T1, human TIGIT expressed on cells. Briefly: FACS competition on Jurkat-hTIGIT; competitor CD155-His 15 ug/ml.
Assay [5] has the same target. Briefly: flow cytometry, CD8+ T cells from cancer patient PBMC, MFI on TIGIT+CD8+. Here is the method:
Cells were distributed at 1×10^5 cells per well. […] Then, cells were washed and incubated with the following antibodies and life viability dye (LVD) mix: anti-CD4-PercP-Cy5.5 (clone A161A1, BioLegend 357414); anti-CD8-BV510 (clone SK1, BD Bioscience 563919) and LVD efluor 520 (eBioscience 65-0867-14). Cells were washed and fixed and surface staining was quantified using BD LSR Fortessa. Flow cytometry data was analysed using FlowJo V10.1. TIGIT MFI on gated LVD-TIGIT+CD8+ cells was used to calculate EC50 values.

Assay [6] shares this target. Briefly: flow cytometry, Jurkat-hTIGIT, MFI; end of the range tied to 313M32 by Table 16.
For assay [7] the target is unchanged. In words: flow cytometry, human primary CD8+ T cells (healthy PBMC), MFI on TIGIT+CD8+.

Where a chain is given by its changes, count along the chain named.

Broadly, the EC50 is the concentration giving half of the maximal effect. The term Kd denotes the constant that tells how readily two partners part at equilibrium. One may read the IC50 as the concentration that gives 50% inhibition. High values mean a need for much substance, low ones inhibition by little substance.

B1: anti-TIGIT antibody clone 26486 (antibody, V domains shown)
VH: QVQLQESGPGLVKPSETLSLTCAVSGYSISSGYYWAWIRQPPGKGLEWIGSIYHSGSTYYNPSLKSRVTISVDTSKNQFSLKLSSVTAADTAVYYCAIEGANYYDFGYVAFDIWGQGTMVTVSS
VL: EIVMTQSPATLSVSPGERATLSCRASQSVSSNLAWYQQKPGQAPRLLIYGASTRATGIPARFSGSGSGTEFTLTISSLQSEDFAVYYCQQSPPWPRTFGGGTKVEIK
Turning to B1, the Polyspecificity Reagent (PSR) Score (0-1) in assay [1] was 0 score (0-1).

B2: anti-TIGIT antibody clone 32931 (antibody, V domains shown)
VH: QLQLQESGPGLVKPSETLSLTCTVSGGSISSGSYYLAWIRQPPGKGLEWIGSIFRSGSTYYNPSLESRVTISVDTSKNQFSLKLSSVTAADTAVYYCAIEGANFKDFGYVAFDIWGQGTTVTVSS
VL: B1 VL with Q27K, G50F, S91T, P92S
With B2, the Polyspecificity Reagent (PSR) Score (0-1) in assay [1] is 0 score (0-1).

B3: anti-TIGIT antibody clone 31288 (antibody, V domains shown)
VH: B2 VH
VL: B1 VL
Regarding B3, the Polyspecificity Reagent (PSR) Score (0-1) in assay [1] was 0 score (0-1).

B4: anti-TIGIT antibody clone 29494 (antibody, V domains shown)
VH: B2 VH with L2V, T120M
VL: B1 VL
Turning to B4, in assay [1], the Polyspecificity Reagent (PSR) Score (0-1) was 0 score (0-1).

B5: anti-TIGIT antibody clone 29499 (antibody, V domains shown)
VH: B2 VH with G32S, S33R, L36W, F54G, R55T, E66K, A90T, K105R, T120M
VL: B1 VL
Regarding B5, in assay [1], the Polyspecificity Reagent (PSR) Score (0-1) was 0.1 score (0-1).

B6: anti-TIGIT antibody clone 26493 (antibody, V domains shown)
VH: EVQLVESGGGLVQPGRSLRLSCAASGFTFGDYAMHWVRQAPGKGLEWVSGITWNSGSIGYADSVKGRFTISRDNAKNSLYLQMNSLRAEDTALYYCAKPVPKSRGLDVWGQGTMVTVSS
VL: DIQLTQSPSSVSASVGDRVTITCRASQGISSWLAWYQQKPGKAPKLLIYGASSLQSGVPSRFSGSGSGTDFTLTISSLQPEDFATYYCQQAFYLPWTFGGGTKVEIK
Take B6: the Polyspecificity Reagent (PSR) Score (0-1) in assay [1] was 0 score (0-1).

B7: anti-TIGIT antibody clone 29523 (antibody, V domains shown)
VH: EVQLVESGGGVVQPGRSLRLSCAASGFTFGSYYMHWVRQAPGKGLEWVAVIWPDGSNKLYADSVKGRFTISRDNSKNTLYLQMNSLRAEDTALYYCAKPVPKSRALDVWGQGTMVTVSS
VL: B6 VL
As to B7, in assay [1], the Polyspecificity Reagent (PSR) Score (0-1) was 0.12 score (0-1).

B8: anti-TIGIT antibody clone 29520 (antibody, V domains shown)
VH: B6 VH with E1Q, G30R, S57L, K102R, S103L
VL: B6 VL
For B8, in assay [1], the Polyspecificity Reagent (PSR) Score (0-1) is 0.32 score (0-1).

B9: anti-TIGIT antibody clone 29527 (antibody, V domains shown)
VH: B7 VH with E1Q, G30S, Y32S, W52G, P53A, L59Y, K65E, K102R, S103R, A105G
VL: B6 VL
For the molecule B9, in assay [1], the Polyspecificity Reagent (PSR) Score (0-1) was 0.12 score (0-1).

B10: anti-TIGIT antibody 313M32 (antibody, V domains shown)
VH: QVQLQESGPGLVKPSETLSLTCAVSGYSITSDYAWNWIRQPPGKGLEWIGYISYSGSTSYNPSLRSRVTISRDTSKNQFFLKLSSVTAADTAVYYCARRQVGLGFAYWGQGTLVTVSS
VL: DIQMTQSPSSLSASVGDRVTITCKASQDVSTAVAWYQQKPGKAPKLLIYSASYRYTGVPSRFSGSGSGTDFTFTISSLQPEDIATYYCQQHYSTPWTFGGGTKVEIK
As to B10, in assay [2], the concentration giving a half-maximal response (EC50) turned out to be 0.44 nM and the “Fold change of EC50 over EC50 of best clone (31282_wu)” value was 4.2 fold. For the same molecule, the Kd in assay [3] was found to be 10.1 nM. In assay [4], the “Fold change of IC50 over IC50 of best clone (31282_up)” value was determined as 16.7 fold and the IC50 stood at 0.65 nM. In assay [5], the EC50 turned out to be 1 nM and the “Fold change of EC50 over EC50 of best clone (31282)” value worked out at 8.3 fold. The same molecule came in with an EC50 in assay [6] of 0.445 nM. For the same molecule, in assay [7], the EC50 is 1.45 nM and the “Fold change of EC50 over EC50 of best clone (31282_wu)” value was 7.5 fold.

B11: anti-TIGIT antibody clone 29513 (antibody, V domains shown)
VH: QVQLVQSGAEVKKPGSSVKVSCKASGGTFQNYAISWVRQAPGQGLEWMGVIVPIFGTANYAQKFQGRVTVTADESTSTAYMELSSLRSEDTAVYYCARLHLGQKAYYGMDVWGQGTTVTVSS
VL: DIQMTQSPSSLSASVGDRVTITCRASQSISSYLNWYQQKPGKAPKLLIYAASSLQSGVPSRFSGSGSGTDFTLTISSLQPEDFATYYCQQRYVFPPTFGGGTKVEIK
As to B11, in assay [1], the Polyspecificity Reagent (PSR) Score (0-1) is 0.01 score (0-1).
